No end group written: not given here. TMR = tetramethyl rhodamine dye

Common to all, as to assay: fluorescence polarisation; 25 °C; unlabeled Rb^P titrated against 1.5 nM TMR-E2F1^TD or 7.5 nM TMR-E7^LxCxE; 25 mM Tris pH 8.0, 200 mM NaCl, 1 mM DTT, 0.1% Tween-20; 2 min incubation; quadratic fit; apparent Kd for the variants, Kd for WT
Common to all, as to conditions: both partners purified

For assay [1], the target named is T1, retinoblastoma protein pocket domain (Rb^P), wild type (human, UniProt P06400 380-788).
T1 construct: also called WT Rb^P; WT
T1 sequence (looked up): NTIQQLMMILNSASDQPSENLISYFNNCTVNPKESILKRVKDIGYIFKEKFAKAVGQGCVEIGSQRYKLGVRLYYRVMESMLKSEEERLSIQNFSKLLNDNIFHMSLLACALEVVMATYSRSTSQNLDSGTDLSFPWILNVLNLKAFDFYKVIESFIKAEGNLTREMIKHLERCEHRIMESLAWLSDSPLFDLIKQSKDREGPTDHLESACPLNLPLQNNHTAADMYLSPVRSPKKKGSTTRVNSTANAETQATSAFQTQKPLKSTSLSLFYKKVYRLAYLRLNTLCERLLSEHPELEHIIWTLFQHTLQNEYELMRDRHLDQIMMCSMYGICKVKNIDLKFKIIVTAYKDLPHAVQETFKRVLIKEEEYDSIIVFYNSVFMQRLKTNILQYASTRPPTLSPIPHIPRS

A further assay concerns the target T2, Rb^P E675Q (human, UniProt P06400 380-788, E675Q).
T2 construct: also called variant 56
T2 sequence (looked up): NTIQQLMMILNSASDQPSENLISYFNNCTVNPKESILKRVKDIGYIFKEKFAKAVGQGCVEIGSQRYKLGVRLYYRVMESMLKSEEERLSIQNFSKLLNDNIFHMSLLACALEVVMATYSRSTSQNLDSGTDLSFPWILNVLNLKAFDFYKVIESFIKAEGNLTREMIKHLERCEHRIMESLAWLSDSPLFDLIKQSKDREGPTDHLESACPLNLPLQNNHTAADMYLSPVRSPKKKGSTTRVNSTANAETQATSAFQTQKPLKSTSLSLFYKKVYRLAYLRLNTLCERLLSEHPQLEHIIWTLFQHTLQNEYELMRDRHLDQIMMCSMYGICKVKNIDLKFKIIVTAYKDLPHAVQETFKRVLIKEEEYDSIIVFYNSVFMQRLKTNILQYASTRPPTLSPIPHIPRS

The next assay deals with T3, Rb^P R451C (human, UniProt P06400 380-788, R451C).
T3 construct: also called variant 5
T3 sequence (looked up): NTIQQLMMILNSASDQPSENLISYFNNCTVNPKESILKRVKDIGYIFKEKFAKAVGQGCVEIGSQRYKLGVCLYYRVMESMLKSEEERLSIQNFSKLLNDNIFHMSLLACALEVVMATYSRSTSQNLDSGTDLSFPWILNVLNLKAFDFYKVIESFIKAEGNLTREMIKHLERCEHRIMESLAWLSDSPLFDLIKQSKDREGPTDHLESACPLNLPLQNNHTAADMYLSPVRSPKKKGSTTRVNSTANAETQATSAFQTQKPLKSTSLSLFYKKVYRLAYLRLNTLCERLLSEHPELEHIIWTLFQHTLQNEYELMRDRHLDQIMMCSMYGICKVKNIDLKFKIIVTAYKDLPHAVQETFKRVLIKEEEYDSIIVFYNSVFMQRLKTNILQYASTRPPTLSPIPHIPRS

For the next assay, the target named is T4, Rb^P M704V (human, UniProt P06400 380-788, M704V).
T4 construct: also called variant 66
T4 sequence (looked up): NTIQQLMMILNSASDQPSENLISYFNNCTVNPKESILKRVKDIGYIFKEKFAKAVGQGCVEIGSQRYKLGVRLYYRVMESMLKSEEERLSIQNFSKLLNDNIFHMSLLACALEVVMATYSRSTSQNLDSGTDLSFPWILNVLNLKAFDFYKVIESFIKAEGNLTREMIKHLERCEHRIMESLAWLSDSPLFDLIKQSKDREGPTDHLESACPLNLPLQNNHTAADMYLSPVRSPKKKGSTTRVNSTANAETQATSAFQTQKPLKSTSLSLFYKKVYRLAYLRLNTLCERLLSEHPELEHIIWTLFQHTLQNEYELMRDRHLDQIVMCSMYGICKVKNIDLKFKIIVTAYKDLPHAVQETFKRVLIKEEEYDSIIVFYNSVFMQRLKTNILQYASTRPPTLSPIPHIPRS

The target in the next assay is T5, Rb^P R451H (human, UniProt P06400 380-788, R451H).
T5 construct: also called variant 6
T5 sequence (looked up): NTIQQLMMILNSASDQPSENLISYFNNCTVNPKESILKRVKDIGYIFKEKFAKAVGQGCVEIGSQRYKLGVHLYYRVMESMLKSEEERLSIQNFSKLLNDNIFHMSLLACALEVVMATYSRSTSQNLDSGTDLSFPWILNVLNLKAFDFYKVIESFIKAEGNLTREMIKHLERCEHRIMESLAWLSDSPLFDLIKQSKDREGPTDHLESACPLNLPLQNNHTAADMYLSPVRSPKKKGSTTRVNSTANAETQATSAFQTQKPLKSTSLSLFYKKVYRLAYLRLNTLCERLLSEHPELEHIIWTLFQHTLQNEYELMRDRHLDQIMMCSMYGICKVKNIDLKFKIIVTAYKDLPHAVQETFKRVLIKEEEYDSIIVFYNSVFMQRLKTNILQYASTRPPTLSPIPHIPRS

B1: TMR-E2F1^TD, peptide of the E2F1 transactivation domain (peptide)
peptide: {TMR}-GEGIRDLFDCDFGDLTPLD
notes: also called E2F^TD; source: synthetic peptide, bought: GenScript
With B1, the Kd in assay [1] came out at 14 nM; with Rb^P E675Q it was 35 nM; in the assay with Rb^P R451C it was 33 nM; with Rb^P M704V, 41 nM; with Rb^P R451H, 29 nM.

B2: TMR-E7^LxCxE, LxCxE peptide of the E7 oncoprotein from HPV (peptide)
peptide: DLYCYEQLN
modifications: also: TMR label, position not given here
notes: source: synthetic peptide, bought: GenScript
With B2, the Kd was 5 nM in assay [1]; 20 nM in the assay with Rb^P E675Q; 7 nM with Rb^P R451C; 18 nM with Rb^P M704V; 9 nM with Rb^P R451H.
